One sequence from paper PMC9164447 can be followed below.

For the series, the target named is SARS-CoV-2 nucleocapsid N protein wild type (SARS-CoV-2) (UniProt P0DTC9). Put plainly: fluorescence anisotropy.

As to NNNNNNNNNN [10-nt degenerate RNA], the Kd (in general, the free concentration of one partner at which half of the binding sites on the other are occupied at equilibrium, for simple one-to-one binding) worked out at 0.028 µM. In other words, the double-digit nanomolar range.
